Results from PMC8130932 (PLoS Pathogens, 2021).

Experiments:
[1] = biological target: T1, SARS-CoV-2 spike receptor-binding domain, recombinant (SARS-CoV-2, reference sequence, UniProt P0DTC2); test: ELISA
T1 construct: also called RBD; source: bought: Sino Biologicals, baculovirus-insect cells

[2] = biological target: T2, SARS-CoV-2 RBD (amino acids 340-538) on MDCK-SIAT1 cells (SARS-CoV-2 (so in the source)); test: flow cytometry on cells; details: one partner purified
T2 construct: also called MDCK-RBD; source: MDCK-SIAT1, stably transduced (lentiviral vector), on the cell surface

[3] = biological target: T3, SARS-CoV-2 NTD on MDCK-SIAT1 cells (SARS-CoV-2 (so in the source)); test: flow cytometry on cells; details: one partner purified
T3 construct: also called MDCK-NTD

[4] = biological target: T4, SARS-CoV-2 spike S2 subunit, recombinant (SARS-CoV-2, reference sequence, UniProt P0DTC2); test: ELISA
T4 construct: source: bought: Sino Biologicals, baculovirus-insect cells

[5] = biological target: SARS-CoV-2 nucleocapsid, recombinant (SARS-CoV-2, reference sequence, UniProt P0DTC9); test: ELISA

Row | Binder | OD450 [1] [OD450] | binding result [2] | binding result [3] | OD450 [4] [OD450] | OD450 [5] [OD450]
1 | FI 3A (antibody, V domains shown, source: HEK293T, transfected; culture supernatant or purified) VH: EVQLLESGGGLIQPGGSLRLSCAASGFTVSSNYMSWVRQAPGKGLEWVSVIYSGGSTYYADSVKGRFTISRDNSKNTLYLQMNSLRAEDTAVYYCARDHVRPGMNIWGQGTMVTVSS VL: not shown | 1.12 | binds |  |  | 
2 | FI 4A (antibody, V domains shown, source: HEK293T, transfected; culture supernatant or purified) VH: EVQLVESGGGLVKPGGSLRLSCAASGFTFSRFSMNWVRQAPGKGLEWVSSISSSGSYIYFADSVKGRFTISRDNAKNSLYLQMNSLRAEDTAIYYCATYLFGDSHTYWGQGTLVTVSS VL: QSVLTQPHSVSESPGKTVTISCTGSSGSIASNYVQWYQQRPGSAPTTVIYEDNQRPSGVPDRFSGSIDSSSNSASLTISGLKTEDEADYYCQSYDSSNLHWVFGGGTKLTVL | 1.12 | binds |  |  | 
3 | FD 11C (antibody, V domains shown, source: HEK293T, transfected; culture supernatant or purified) VH: EVQLLESGPGLVKPSETLSLTCTVSGGSISSSSYYWGWIRQPPGKGLEWIGSIYYSGSTYYNPSLKSRVTISVDTSKNQFSLKLSSVTAADTAVYYCAREYYYGSETKKYYYYYGMDVWGQGTTVTVSS VL: not shown |  | no binding | no binding |  | 
4 | FD 11A (antibody, V domains shown, source: HEK293T, transfected; culture supernatant or purified) VH: EVQLVESGGGVVQPGRSLRLSCAASGFTFSSYGMHWVRQAPGKGLEWVAVIWYDGSNKYYADSVKGRFTISRDNSKNTLYLQMNSLRAEDTAVYYCAKGPDILTGYYNYYYYGMDVWGQGTMVTVSS VL: QSVLTQPPSVSGAPGQRVTISCTGSSSNIGAGYDVHWYQQLPGTAPKLLIYGNSNRPSGVPDRFSGSKSGTSASLAITGLQAEDEADYYCQSYDSSLSGFYVVFGGGTKLTVL | 1.17 | binds |  |  | 
5 | FM 1A (antibody, V domains shown, source: HEK293T, transfected; culture supernatant or purified) VH: EVQLLESGGGVVQPGRSLRLSCAASGFTFSSYGMHWVRQAPGKGLEWVAVIWYDGSNKYYADSVKGRFTISRDNSKNTLYLQMNSLRAEDTAVYYCAREGAVGATRGFDYWGQGTLVTVSS VL: SYELTQPPSVSVAPGQTARITCGGNNIGSKSVHWYQQKPGQAPVLVVYDDSDRPSGIPERFSGSNSGNTATLTISRVEAGDEADYYCQVWDSSSDQGVFGGGTKLTVL |  |  |  | 0.88 | 
6 | FN 8C (antibody, V domains shown, source: HEK293T, transfected; culture supernatant or purified) VH: QVQLVESGGGVVQPGRSLRLSCAASGFTFSSYGMHWVRQAPGKGLEWVAVISYDGSNKYYADTVKGRFTISRDNSKNTLYLQMNSLRAEDTAVYYCARERTYYDILTGYRHYYGMDVWGQGTTVTVSS VL: SYELTQPPSVSVAPGQTARITCGGNNIGSKSVHWYQQKPGQAPVLVVYDDSDRPSGIPERFSGSNSGNTATLTISRVEAGDEADYYCQVWDSSSDHWVFGGGTKLTVL |  | no binding | no binding |  | 
7 | FG 12C (antibody, V domains shown, source: HEK293T, transfected; culture supernatant or purified) VH: EVQLVESGGGLVQPGRSLRLSCAASGFTFDDYAMHWVRQAPGKGLEWVSGISWNSGSIGYADSVKGRFTISRDNAKNSLYLQMNSLRAEDTALYYCAKDMRVHDYGDYYFDYWGQGTLVTVSS VL: SYELTQPPSVSVAPGKTARITCGGNNIGSKSVHWYQQKPGQAPVLVIYYDSDRPSGIPERFSGSNSGNTATLTISRVEAGDEADYYCQVWDSSSDHPVFGGGTKLTVL |  | no binding | no binding |  | 
8 | FD 5D (antibody, V domains shown, source: HEK293T, transfected; culture supernatant or purified) VH: EVQLVESGGGLVQPGGSLRLSCAASGFTFSSYSMNWVRQAPGKGLEWVSYISSSSSTIYYADPVKGRFTISRDNAKNSLYLQMNSLRAEDTAVYYCASPGGITAAGTSVLFGYYGMDVWGQGTMVTVSS VL: not shown | 1.19 | binds |  |  | 
9 | EZ 7B (antibody, V domains shown, source: HEK293T, transfected; culture supernatant or purified) VH: EVQLVESSPGLVKPSETLSLTCTVSGGSISSYYWSWIRQPPGKGLEWIGYIYYSGSTNYNPSLKSRVTISVDTSKNQFSLKLSSVTAADTAVYYCARRVFGPVLPSKLGGSYWGGGAFDIWGQGTMVTVSS VL: not shown |  |  |  |  | 1.01
10 | FD 11D (antibody, V domains shown, source: HEK293T, transfected; culture supernatant or purified) VH: EVQLVESGGGVVQPGRSLRLSCAASGFTFSSYGMHWVRQAPGKGLEWVAVISYDGSNKYYADSVKGRFTISRDNSKNTLYLQMNSLRAEDTAVYYCAKEGAGSGWYRHHKPGYYFDYWGQGTLVTVSS VL: not shown |  | no binding |  |  | 
11 | FI 1C (antibody, V domains shown, source: HEK293T, transfected; culture supernatant or purified) VH: EVQLVESGGGLVKPGGSLRLSCAASGFTFSDYYMSWIRQAPGKGLEWVSYISSSGSTIYYADSVKGRFTISRDNAKNSLYLQMNSLRAEDTAVYYCARRSNRFLIAFDIWGQGTMVTVSS VL: QSALTQPASVSGSPGQTITISCTGTSSDVGGYNYVSWYQQHPGKAPKLMIYEVSNRPSGVSNRFSGSKSGNTASLTISGLQAEDEADYYCSSYTSSSTLVVFGGGTKLTVP | 1.22 | binds |  |  | 
12 | FD 7D (antibody, V domains shown, source: HEK293T, transfected; culture supernatant or purified) VH: EVQLVESGAEVKKPGESLRISCKGSGYSFTSYWISWVRQMPGKGLEWMGRIDPSDSYTNYSPSFQGHVTISADKSISTAYLQWSSLKASDTAMYYCARHSDCSSTSCYFVDAFDIWGQGTMVTVSS VL: not shown |  | no binding | no binding |  | 
13 | FG 7A (antibody, V domains shown, source: HEK293T, transfected; culture supernatant or purified) VH: EVQLVESGGGVVQPGRSLRLSCAASGFTFSSYAMHWVRQAPGKGLEWVAVISYDGSNKYYADSVKGRFTISRDNSKNTLYLQMNSLRAEDTAVYYCARSHSGSYRASLDYWGQGTTVTVSS VL: not shown |  |  |  | 1.05 | 
14 | FD 1D (antibody, V domains shown, source: HEK293T, transfected; culture supernatant or purified) VH: EVQLVESGGGVVQPGRSLRLSCAASGFTFSSYAMHWVRQAPGKGLEWVAVISYDGSNKYYADSVKGRFTISRDNSKNTLYLQMNSLRAEDTAVYYCARAGSGSYLNWFDPWGQGTLVTVSS VL: EIVLTQSPATLSLSPGERATLSCRASQSVSSYLAWYQQKPGQAPRLLIYDASNRATGIPARFSGSGSGTDFTLTISSLEPEDFAVYYCQQRSNWPITFGQGTRLEIK |  | no binding | no binding | 1.06 | 
15 | FJ 10B (antibody, V domains shown, source: HEK293T, transfected; culture supernatant or purified) VH: QVQLVQSGAEVKKPGESLRISCKGSGYSFTSYWISWVRQMPGKGLEWMGRIDPSDSYTNYSPSFQGHVTISADKSISTAYLQWSSLKASDTAMYYCARLDPRYGPDYYGMDVWGQGTTVTVSS VL: AIRMTQSPSSLSASVGDRVTITCRASQSISSYLNWYQQKPGKAPKLLIHAASSLQSGVPSRFSGSGSGTDFTLTMSSLQPEDFATYYCQQSYSTPLTFGGGTKVEIR | 1.22 | binds |  |  | 
16 | FM 7B (antibody, V domains shown, source: HEK293T, transfected; culture supernatant or purified) VH: EVQLVQSGAEVKKPGASVKVSCKASGYTFTSYAMHWVRQAPGQRLEWMGWINTGNGNTKYSQKFQGRVTITRDTSASTAYMELSSLRSEDTAVYYCARDPTYCSSTSCYPFSWFDPWGQGTLVTVSS VL: NFMLTQPPSVSVAPGQTARITCGGNNIGSKSVHWYQQKPGQAPVLVVYDDSDRPSGIPERFSGSNSGNTATLTISRVEAGDEADYYCQVWDSTGDHSWVFGGGTKLTVL | 1.27 | binds |  |  | 
17 | FD 5E (antibody, V domains shown, source: HEK293T, transfected; culture supernatant or purified) VH: EVQLVESGGVVVQPGGSLRLSCAASGFTFDDYAMHWVRQAPGKGLEWVSLISWDGGSTYYADSVKGRFTISRDNSKNSLYLQMNSLRAEDTALYYCAKDSVRFRYYYGMDVWGQGTTVTVSS VL: EIVLTQSPATLSLSPGERATLSCRASQSVSSYLAWYQQKPGQAPRLLIYDASNRATGIPARFSGSGSGTDFTLTISSLEPEDFAVYYCQQRSNWPLTFGPGTKVDIK |  | no binding | no binding |  | 
18 | EW 9B (antibody, V domains shown, source: HEK293T, transfected; culture supernatant or purified) VH: EVQLVQSGAEVKKPGASVKVSCKASGYTFTSYYMHWVRQAPGQGLEWMGIINPSGGSTSYAQKFQGRVTMTRDTSTSTVYMELSSLRSEDTAVYYCAREDGVVPAANLMISLEDYYYYGMDVWGQGTTVTVSS VL: EIVLTQSPATLSLSPGERATLSCRASQSVSSYLAWYQQKPGQAPRLLIYDASNRATGIPARFSGSGSGTDFTLTISSLEPEDFAVYYCQQRSNWPLTFGGGTKVDIK |  | no binding | no binding |  | 
19 | EZ 7A (antibody, V domains shown, source: HEK293T, transfected; culture supernatant or purified) VH: EVQLVESGAEVKKPGESLKISCKGSGYSFTSYWIGWVRQMPGKGLEWMGIIYPGDSDTRYSPSFQGQVTISADKSISTAYLQWSSLKASDTAMYYCARGWVYRGFPYYGMDVWGQGTMVTVSS VL: QSALTQPRSVSGSPGQSVTISCTGTSSDVGGYNYVSWYQQHPGKAPKLMIYDVSKRPSGVPDRFSGSKSGNTASLTISGLQAEDEADYYCCSYAGSYTLVFGGGTKLTVL | 1.12 | binds |  |  | 
20 | EY 6A (antibody, V domains shown, source: HEK293T, transfected; culture supernatant or purified) VH: EVQLVESGGGVVQPGRSLRLSCAASAFTFSSYDMHWVRQAPGKGLEWVAVISYDGSNKYYADSVKGRFTISRDNSKNTLYLQMNSLRAEDTAVYYCAKDGGKLWVYYFDYWGQGTLVTVSS VL: not shown | 1.18 | binds |  |  | 
21 | FD 7C (antibody, V domains shown, source: HEK293T, transfected; culture supernatant or purified) VH: QLQLQESGPGLVKPSETLSLTCTVSGGSISSYYWSWIRQPPGKGLEWIGYIYYSGSTNYNPSLKSRVTISVDTSKNQFSLKLSSVTAADTAVYYCARDYRFGELFGRFAWFDPWGQGTLVTVSS VL: not shown |  | no binding | binds |  | 
22 | FN 12A (antibody, V domains shown, source: HEK293T, transfected; culture supernatant or purified) VH: QVQLVQSGAEVKKPGSSVKVSCKASGGTFSSYAISWVRQAPGQGLEWMGRIIPILGIANYAQKFQGRVTITADKSTSTAYMELSSLRSEDTAVYYCARSGCSSTSCPSNLYYYYYGMDVWGQGTTVTVSS VL: QSVLTQPPSVSAAPGQKVTISCSGSSSNIGNNYVSWYQQLPGTAPKLLIYDNNKRPSGIPDRFSGSKSGTSATLGITGLQTGDEADYYCGTWDSSLSALVFGGGTKLTVL | 1.33 | binds | no binding |  | 
